Results as given in US5668109A, “Peptides for inhibiting pepsin release” (Societe de Conseils de Recherches et D'Applications …, priority 1994, dated 1997).
Square brackets hold non-standard residues; d marks the D form. Ends that are not written are not given here.

Conditions: in vivo

With “Pro--Val--Thr--Lys--Pro--Gln-D-Ala--NH2 (PVTKPQ[dA]-NH2; N-terminus assumed; SMILES CC(C)[C@H](NC(=O)[C@@H]1CCCN1)C(=O)N[C@H](C(=O)N[C@@H](CCCCN)C(=O)N1CCC[C@H]1C(=O)N[C@@H](CCC(N)=O)C(=O)N[C@H](C)C(N)=O)[C@@H](C)O) [P^D1]” the “quantity found in the organism” value was “greater than 10%”.
